Laboratory results: patent US20250163162A1 (SYNTHEKINE, published 2025)

Key:
[1] = target: T1, hIL2Rg-Fc (SinoBiological cat#10555) (human, UniProt P31785 23-254, limits assumed); assay: SPR (Biacore T200); ratio experimental/calculated Rmax
T1 construct: Bought Fc fusion (SinoBiological cat#10555); P31785 is printed for hCD132 in the background; also called human IL2Rg-Fc; not shown: Fc of the bought fusion protein
T1 sequence (looked up): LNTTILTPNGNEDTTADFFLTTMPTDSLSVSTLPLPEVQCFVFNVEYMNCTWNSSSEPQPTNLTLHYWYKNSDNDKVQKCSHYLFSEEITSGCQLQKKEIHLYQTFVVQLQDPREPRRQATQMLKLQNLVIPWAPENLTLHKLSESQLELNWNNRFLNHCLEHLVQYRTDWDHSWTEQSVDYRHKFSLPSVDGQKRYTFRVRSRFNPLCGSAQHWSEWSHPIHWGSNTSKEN

[2] = target: T2, cIL2Rg-Fc (lot#P210115SV5) (cynomolgus, UniProt A0A2K5VGJ6 23-262); assay: as above
T2 construct: Named only by lot number; also called cynomolgus IL2Rg-Fc; not shown: Fc of the fusion protein
T2 sequence: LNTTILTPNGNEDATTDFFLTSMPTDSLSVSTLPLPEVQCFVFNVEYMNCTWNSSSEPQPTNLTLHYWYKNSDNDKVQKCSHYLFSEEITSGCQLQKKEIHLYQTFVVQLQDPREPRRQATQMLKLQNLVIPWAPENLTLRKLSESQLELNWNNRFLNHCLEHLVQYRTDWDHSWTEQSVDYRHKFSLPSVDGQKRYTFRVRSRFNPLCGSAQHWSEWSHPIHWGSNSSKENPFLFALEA

[3] = target: T1, hIL2Rg-Fc (SinoBiological cat#10555); assay: SPR (Biacore T200), Fc-fused ligand captured on chip, dual VHH as analyte, 1:1 Langmuir fit
Experimental: (§1) All experiments were conducted in 10 mM Hepes, 150 mM NaCl, 0.05% (v/v) Polysorbate 20 (PS20) and 3 mM EDTA (HBS-EP+ buffer) on a Biacore T200 instrument equipped with Protein A or CAP biotin chips (Cytiva). For experiments on Protein A chips, Fc-fused ligands were flowed at 5 μl/min for variable time ranging from 18 to 300 seconds, reaching the capture loads listed in the tables below. Following ligand capture, injections of a 2-fold dilution series of analyte typically comprising at least five concentrations between 1 μM and 1 nM were performed in either high performance or single cycle kinetics mode. Surface regeneration was achieved by flowing 10 mM glycine-HCl, pH 1.5 (60 seconds, […]). Buffer-subtracted sensograms were processed with Biacore T200 Evaluation Software and globally fit with a 1:1 Langmuir binding model (bulk shift set to zero) to extract kinetics and affinity constants (kₐ, kd, KD). RMAX<100 RU indicates surface density compatible with kinetics analysis. Experiments on CAP chips were performed as described above with an additional capture step of Biotin CAPture reagent (10 seconds, 40 uL/min) performed prior to capture of biotinylated ligands. Calculated Rmax were generated using the equation Rmax=Load (RU) x valency of ligand x (Molecular weight of analyte/Molecular weight of ligand. Surface activity was defined as the ratio experimental/calculated Rmax. The results of these experiments are provided in below for sample information and experimental results.

[4] = target: T2, cIL2Rg-Fc (lot#P210115SV5); assay: as above
Experimental: as §1

IL10Rα/IL2Rγ receptor [5] = target: T3, IL10Rα/IL2Rγ receptor (human, UniProt Q13651 22-578; P31785 23-369); assay: cell-based or functional assay
T3 sequence (looked up) 1: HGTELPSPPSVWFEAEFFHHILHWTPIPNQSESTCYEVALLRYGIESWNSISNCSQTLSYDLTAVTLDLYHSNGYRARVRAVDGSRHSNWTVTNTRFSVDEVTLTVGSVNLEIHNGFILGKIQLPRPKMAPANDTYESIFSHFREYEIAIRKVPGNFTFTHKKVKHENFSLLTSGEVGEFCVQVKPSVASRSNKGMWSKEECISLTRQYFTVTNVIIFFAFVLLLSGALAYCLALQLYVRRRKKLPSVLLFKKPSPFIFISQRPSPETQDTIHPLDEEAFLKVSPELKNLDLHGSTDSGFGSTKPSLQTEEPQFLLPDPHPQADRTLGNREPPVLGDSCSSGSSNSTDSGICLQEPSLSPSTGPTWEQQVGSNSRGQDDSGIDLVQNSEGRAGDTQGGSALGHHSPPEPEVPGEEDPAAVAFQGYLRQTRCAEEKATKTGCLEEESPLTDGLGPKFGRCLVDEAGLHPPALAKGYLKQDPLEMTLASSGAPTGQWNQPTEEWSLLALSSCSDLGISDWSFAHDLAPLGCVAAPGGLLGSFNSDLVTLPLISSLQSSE
T3 sequence (looked up) 2: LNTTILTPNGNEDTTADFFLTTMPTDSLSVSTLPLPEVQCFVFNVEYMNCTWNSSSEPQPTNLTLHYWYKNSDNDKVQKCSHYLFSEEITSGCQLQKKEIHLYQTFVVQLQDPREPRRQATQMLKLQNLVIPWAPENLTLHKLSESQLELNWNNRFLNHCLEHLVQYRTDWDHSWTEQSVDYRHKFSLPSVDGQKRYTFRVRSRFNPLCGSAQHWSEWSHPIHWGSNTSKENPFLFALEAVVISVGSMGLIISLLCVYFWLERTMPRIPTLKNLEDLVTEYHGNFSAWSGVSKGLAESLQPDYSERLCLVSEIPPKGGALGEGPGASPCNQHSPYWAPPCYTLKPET

IL10Rα/IL2Rγ receptor [6] = target: T3, IL10Rα/IL2Rγ receptor; assay: cell-based or functional assay; remark: listed apart in the source
IL10Rα/IL2Rγ receptor [7] = target: T3, IL10Rα/IL2Rγ receptor; assay: cell-based or functional assay; remark: listed apart in the source
IL10Rα/IL2Rγ receptor [8] = target: T3, IL10Rα/IL2Rγ receptor; assay: cell-based or functional assay; remark: listed apart in the source
IL10Rα/IL2Rγ receptor [9] = target: T3, IL10Rα/IL2Rγ receptor; assay: cell-based or functional assay; remark: listed apart in the source
IL10Rα/IL2Rγ receptor [10] = target: T3, IL10Rα/IL2Rγ receptor; assay: cell-based or functional assay; remark: listed apart in the source

B1: DR395(DR229-DR239) (bispecific antibody)
chain: QVQLQESGGGLVQPGGSLRLSCTASGFSFSSYPMTWARQAPGKGLEWVSTIASDGGSTAYAASVEGRFTISRDNAKSTLYLQLNSLKTEDTAMYYCTKGYGDGTPAPGQGTQVTVSSGGGSQVQLQESGGGSVQAGGSLRLSCTVSGYTYSSNCMGWFRQAPGKEREGVATIYTGGGNTYYADSVKGRFTISQDNAKNTVYLQMNNLKPEDTAMYYCAAEPLSRVYGGSCPTPTFDYWGQGTQVTVSSASHHHHHH
notes: Anti-hIL10Ra/hIL2Rg dual VHH with ASH6 handle; also called A2
[1]
  Surface Activity: 5%
[2]
  Surface Activity: 2%
[3]
  Kd: 3.9 nM
  koff: 0.0078 s⁻¹
  kon: 2e+06 M⁻¹ s⁻¹
[4]
  Kd: 3.2 nM
  koff: 0.0026 s⁻¹
  kon: 800000 M⁻¹ s⁻¹

B2: DR468(DR240-DR234) (bispecific antibody)
chain: QVQLQESGGGSVQAGGSLRLSCGASGYTYSSYCMGWFRQVPGKEREGVAVIDSDGSTSYADSVKGRFTISKDNGKNTLYLQMNSLKPEDTAMYYCAADLGHYRPPCGVLYLGMDYWGKGTQVTVSSGGGSQVQLQESGGGSVQAGGSLRLSCVASGYTFSSYCMGWFRQAPGKEREGVAALGGGSTYYADSVKGRFTISQDNAKNTLYLQMNSLKPEDTAMYYCAAAWVACLEFGGSWYDLARYKHWGQGTQVTVSSASHHHHHH
notes: Anti-hIL10Ra/hIL2Rg dual VHH with ASH6 handle; also called G8
[1]
  Surface Activity: 6%
[2]
  Surface Activity: 1%
[3]
  Kd: 8.5 nM
  koff: 0.0015 s⁻¹
  kon: 170000 M⁻¹ s⁻¹
[4]
  Kd: 4.3 nM
  koff: 0.001 s⁻¹
  kon: 240000 M⁻¹ s⁻¹

B3: DR465(DR240-DR231) (bispecific antibody)
chain: QVQLQESGGGSVQAGGSLRLSCGASGYTYSSYCMGWFRQVPGKEREGVAVIDSDGSTSYADSVKGRFTISKDNGKNTLYLQMNSLKPEDTAMYYCAADLGHYRPPCGVLYLGMDYWGKGTQVTVSSGGGSQVQLQESGGGSVQAGGSLRLSCTASGFTFDDREMNWYRQAPGNECELVSTISSDGSTYYADSVKGRFTISQDNAKNTVYLQMDSVKPEDTAVYYCAADFMIAIQAPGAGCWGQGTQVTVSSASHHHHHH
notes: Anti-hIL10Ra/hIL2Rg dual VHH with ASH6 handle; also called H1
[1]
  Surface Activity: 4%
[2]
  Surface Activity: 1%
[3]
  Kd: 14.5 nM
  koff: 0.0037 s⁻¹
  kon: 250000 M⁻¹ s⁻¹
[4]
  Kd: 3.2 nM
  koff: 0.0022 s⁻¹
  kon: 700000 M⁻¹ s⁻¹

B4: DR471(DR241-DR231) (bispecific antibody)
chain: QVQLQESGGGSVQAGGSLRLSCAASGYSNCSYDMTWYRQAPGKEREFVSAIHSDGSTRYADSVKGRFFISQDNAKNTVYLQMNSLKPEDTAMYYCKTDPLHCRAHGGSWYSVRANYWGQGTQVTVSSGGGSQVQLQESGGGSVQAGGSLRLSCTASGFTFDDREMNWYRQAPGNECELVSTISSDGSTYYADSVKGRFTISQDNAKNTVYLQMDSVKPEDTAVYYCAADFMIAIQAPGAGCWGQGTQVTVSSASHHHHHH
IL10Rα/IL2Rγ receptor [5]
  pSTAT3 MFI, B cells, 0.0001 nM (unstimulated 1193.5): 1110 MFI
  pSTAT3 MFI, B cells, 0.001 nM (unstimulated 1193.5): 1120 MFI
  pSTAT3 MFI, B cells, 0.01 nM (unstimulated 1193.5): 1110 MFI
  pSTAT3 MFI, B cells, 0.1 nM (unstimulated 1193.5): 1110 MFI
  pSTAT3 MFI, B cells, 1 nM (unstimulated 1193.5): 1170 MFI
  pSTAT3 MFI, B cells, 10 nM (unstimulated 1193.5): 1340 MFI
  pSTAT3 MFI, B cells, 100 nM (unstimulated 1193.5): 1280 MFI
IL10Rα/IL2Rγ receptor [6]
  pSTAT3 MFI, B cells, 100 nM (unstimulated 1045): 1140 MFI
  pSTAT3 MFI, CD4+ T cells, 100 nM (unstimulated 1778): 6240 MFI
  pSTAT3 MFI, CD8+ T cells, 100 nM (unstimulated 1288): 4220 MFI
  pSTAT3 MFI, Monocytes, 100 nM (unstimulated 1787): 1940 MFI
  pSTAT3 MFI, NK cells, 100 nM (unstimulated 1149): 1700 MFI
IL10Rα/IL2Rγ receptor [7]
  pSTAT3 MFI, CD4 T cells, 0.0001 nM (unstimulated 1887): 1800 MFI
  pSTAT3 MFI, CD4 T cells, 0.001 nM (unstimulated 1887): 1860 MFI
  pSTAT3 MFI, CD4 T cells, 0.01 nM (unstimulated 1887): 1860 MFI
  pSTAT3 MFI, CD4 T cells, 0.1 nM (unstimulated 1887): 2250 MFI
  pSTAT3 MFI, CD4 T cells, 1 nM (unstimulated 1887): 4600 MFI
  pSTAT3 MFI, CD4 T cells, 10 nM (unstimulated 1887): 6800 MFI
  pSTAT3 MFI, CD4 T cells, 100 nM (unstimulated 1887): 6200 MFI
IL10Rα/IL2Rγ receptor [8]
  pSTAT3 MFI, Monocytes, 0.0001 nM (unstimulated 2116): 2010 MFI
  pSTAT3 MFI, Monocytes, 0.001 nM (unstimulated 2116): 2030 MFI
  pSTAT3 MFI, Monocytes, 0.01 nM (unstimulated 2116): 2000 MFI
  pSTAT3 MFI, Monocytes, 0.1 nM (unstimulated 2116): 1990 MFI
  pSTAT3 MFI, Monocytes, 1 nM (unstimulated 2116): 2030 MFI
  pSTAT3 MFI, Monocytes, 10 nM (unstimulated 2116): 2230 MFI
  pSTAT3 MFI, Monocytes, 100 nM (unstimulated 2116): 2210 MFI
IL10Rα/IL2Rγ receptor [9]
  pSTAT3 MFI, CD8 T cells, 0.0001 nM (unstimulated 1446): 1400 MFI
  pSTAT3 MFI, CD8 T cells, 0.001 nM (unstimulated 1446): 1420 MFI
  pSTAT3 MFI, CD8 T cells, 0.01 nM (unstimulated 1446): 1420 MFI
  pSTAT3 MFI, CD8 T cells, 0.1 nM (unstimulated 1446): 1640 MFI
  pSTAT3 MFI, CD8 T cells, 1 nM (unstimulated 1446): 3280 MFI
  pSTAT3 MFI, CD8 T cells, 10 nM (unstimulated 1446): 4610 MFI
  pSTAT3 MFI, CD8 T cells, 100 nM (unstimulated 1446): 4400 MFI
IL10Rα/IL2Rγ receptor [10]
  pSTAT3 MFI, NK cells, 0.0001 nM (unstimulated 1315): 1230 MFI
  pSTAT3 MFI, NK cells, 0.001 nM (unstimulated 1315): 1260 MFI
  pSTAT3 MFI, NK cells, 0.01 nM (unstimulated 1315): 1250 MFI
  pSTAT3 MFI, NK cells, 0.1 nM (unstimulated 1315): 1260 MFI
  pSTAT3 MFI, NK cells, 1 nM (unstimulated 1315): 1530 MFI
  pSTAT3 MFI, NK cells, 10 nM (unstimulated 1315): 2000 MFI
  pSTAT3 MFI, NK cells, 100 nM (unstimulated 1315): 1940 MFI
